Assay results reported in paper PMC4017264 (Molecular Cell, 2014).
Blank lines part the entries; values can stand above or below the molecule they belong to. No end group written: not given here. *: point of attachment. FITC = O=C1OC2(c3ccc(O)cc3Oc3cc(O)ccc32)c2ccc(NC(=S)*)cc21; Ahx = NCCCCCC(=O)O

What was measured:
[1] = system: HOIP (Met1-linked polyUb); assay: HOIP autoubiquitination, purification of endogenous Met1-polyUb conjugates (M1-SUB pulldown); type: cell-based; settings: U2OS/NOD2 cells, ectopic OTULIN variants, basal, identical with L18-MDP or TNF, immunoblot
From the text: Antibodies and affinity resin
The following antibodies and reagents were used according to the manufacturers’ instructions: anti-HA-agarose resin (A2095), anti-V5-agarose resin (A7345) and rabbit polyclonal anti-HOIP/RNF31 (SAB2102031, Sigma-Aldrich), rat monoclonal anti-HA (#11867423991, Roche Diagnostics, Burgess Hill, UK), mouse monoclonal anti-ubiquitin (IMG-5021, Imgenex, San Diego, CA), rabbit polyclonal anti-SHARPIN (#14626-1-AP, ProteinTech, Chicago, IL), rabbit polyclonal anti-RBCK1/HOIL-1 (NBP1-88301, Novus Biologicals, Littleton, CO), mouse monoclonal anti-V5 (MCA1360, AbD Serotec, Kidlington, UK), mouse monoclonal anti-$-actin (MAB1501, Chemicon, Millipore, Billerica, MA), rabbit polyclonal anti-HOIL-1, rabbit polyclonal anti-HOIP/RNF31
(Sigma), mouse monoclonal anti-p97 (Thermo Scientific). The
Fam105B/OTULIN antibody was previously described (Keusekotten et al., 2013). […]
HEK293ET, RPE1 and U2OS cells were collected, washed with PBS and lysed on ice for 30 minutes in SEC cell extraction buffer (150 mM NaCl, 50 mM Tris-HCl pH 7.4, 1 mM MgCl2, 1 mM DTT, 0.3% NP40, protease and (Roche)). […] In total 3.1 mg protein extract was analyzed on a Superdex 200 10/300 GL column (GE Life Sciences). […]

[2] = system: HOIP PUB domain (15N HOIP 1-184); assay: NMR binding (chemical shift perturbation) to 15N-labeled HOIP PUB domain; design: species or system Human; settings: 15N BEST-TROSY NMR, 100 μM 15N HOIP 1-184, 20 mM phosphate pH 6.8, 50 mM NaCl, 2 mM DTT, 298K
Procedure: Standard triple-resonance experiments (HNCA, HN(CO)CA, HNCACB, CBCA(CO)NH, and HBHA(CO)NH) were acquired for the assignment of HOIP resonances. Constant time ^13C and ^13C-HSQC were acquired for the methyl and aromatic regions. In addition, (HB)CB(CGCD)HD and (HB)CB(CGCDCE)HE experiments coupled the Cβ of tyrosine resonances to the Hδ and Hε positions of the tyrosine ring, respectively.
Fluorescence polarization binding assays
10 µl of 100 nM FITC-Ahx peptides of either OTULIN (49-67) or p97 (797-806) were aliquoted into a 384-well low volume plate (Corning). Serial dilutions of HOIP PUB into FP assay buffer (20 mM Tris pH 7.4, 100 mM NaCl, 1 mM DTT) were prepared and 10 µl of this was aliquoted to FITC-Ahx peptide-containing wells. Fluorescence polarization was recorded on a PheraStar plate reader (BMG Labtech) using an optics module with $ex = 485 nm and $em = 520 nm. To derive binding constants (KD), polarization values were fitted to a one-site binding model using Graphpad Prism 5.
Nuclear Magnetic Resonance Spectroscopy
Uniformly labeled 15N or 13C, 15N samples of HOIP were prepared following growth in 2M9 medium supplemented with either 15N NH4Cl or 13C glucose.
Proteins were purified as described above and all samples were exchanged into NMR sample buffer (20 mM Na2HPO4/NaH2PO4 pH 6.8, 50 mM NaCl, 2 mM DTT). Lyophilized OTULIN and p97 PIM peptides were reconstituted in NMR sample buffer and the pH adjusted to pH 6.8 prior to use. NMR data were acquired at 298K on Bruker Avance III 600 MHz and Avance2+ 700
MHz spectrometers, equipped with cryogenic triple resonance TCI probes.
Standard triple resonance experiments (HNCA, HN(CO)CA, HNCACB, CBCA(CO)NH, HBHA(CO)NH) were acquired for the assignment of backbone
HOIP resonances. In addition, constant-time (ct) 13C and 13C-HSQC were acquired for the methyl and aromatic regions. For assignment of the H",H# resonances of HOIP tyrosines, (HB)CB(CGCD)HD and (HB)CB(CGCDCE)HE spectra were acquired, which coupled the C$ position of the tyrosine resonances to the H"/H# position of the tyrosine ring respectively. […]

[3] = target: FITC-Ahx-labeled OTULIN PIM peptide (aa 49–67) (UniProt Q96BN8); assay: fluorescence polarisation; serially diluted PUB domains and HOIP variants mixed with an equal volume of 100 nM FITC-Ahx-labeled peptide; one-site binding model; triplicate
[4] = target: T1, HOIP extended PUB domain (aa 1–184) (UniProt Q96EP0 1-184); assay: as above; settings: both partners purified
T1 construct: 15N- or 13C,15N-labelled for NMR; Construct details are in the Supplemental Experimental Procedures; also called HOIP PUB domain
T1 sequence (looked up): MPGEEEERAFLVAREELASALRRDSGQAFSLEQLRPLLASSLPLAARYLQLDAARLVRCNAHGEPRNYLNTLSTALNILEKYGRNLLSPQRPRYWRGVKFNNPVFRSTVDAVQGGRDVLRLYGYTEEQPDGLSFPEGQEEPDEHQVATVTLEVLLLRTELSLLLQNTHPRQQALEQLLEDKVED

[5] = target: T2, PNGase PUB domain R55A (UniProt Q96IV0 11-109, Arg55 was mutated to Ala); assay: as above; settings: both partners purified
T2 construct: PNGase PUB domain with Arg55 mutated to Ala; also called PNGase mutant; Arg55 mutated to Ala
T2 sequence (looked up): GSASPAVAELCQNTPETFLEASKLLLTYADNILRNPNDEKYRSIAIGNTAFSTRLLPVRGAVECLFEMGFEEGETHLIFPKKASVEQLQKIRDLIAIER

[6] = target: T3, HOIP PUB domain (aa 5–180) (UniProt Q96EP0 5-180); assay: crystal structure; HOIP 5–180 with OTULIN 49–67, 2.0 Å, space group P 6(1), two molecules in the asymmetric unit; settings: both partners purified
T3 construct: HOIP, residues 5-180, PUB domain; also called HOIP 5–180; slightly truncated HOIP PUB domain construct
T3 sequence (looked up): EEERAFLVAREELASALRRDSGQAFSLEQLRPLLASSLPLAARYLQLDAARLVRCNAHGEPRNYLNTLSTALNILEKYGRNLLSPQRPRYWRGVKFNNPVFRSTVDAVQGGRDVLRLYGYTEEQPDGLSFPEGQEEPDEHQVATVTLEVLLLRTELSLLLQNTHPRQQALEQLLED

Molecule: inactive OTULIN with a mutation in the PIM (Y56A): catalytically inactive OTULIN (C129A) with PIM mutation Y56A
- HOIP autoubiquitination with Met1-linked polyUb (in words) [1]: did not lead to HOIP autoubiquitination

Molecule: OTULIN 49-67: unlabeled OTULIN PIM peptide (aa 49–67) used in NMR and crystallization (AEHEEDMYRAADEIEKEKE)
- binding / chemical shift perturbations of HOIP PUB domain (in words) [2]: CSPs and loss of a large number of resonances, a feature common to slow exchange

B1: OTU domain: OTULIN catalytic (OTU) domain (aa 80–352) (protein)
chain: LSVAPEMDIMDYCKKEWRGNTQKATCMKMGYEEVSQKFTSIRRVRGDNYCALRATLFQAMSQAVGLPPWLQDPELMLLPEKLISKYNWIKQWKLGLKFDGKNEDLVDKIKESLTLLRKKWAGLAEMRTAEARQIACDELFTNEAEEYSLYEAVKFLMLNRAIELYNDKEKGKEVPFFSVLLFARDTSNDPGQLLRNHLNQVGHTGGLEQVEMFLLAYAVRHTIQVYRLSKYNTEEFITVYPTDPPKDWPVVTLIAEDDRHYNIPVRVCEETSL
modifications: left off: His6 (from the vector pOPINB), end not stated, state not stated
- binding / chemical shift perturbations of HOIP PUB domain (in words) [2]: did not interact with the HOIP PUB domain

Now from value to molecule:

- Kd [3]: 180 nM
Molecule: HOIP extended PUB domain (aa 1–184) (from UniProt Q96EP0 1-184) (domain or fragment)

- Kd [4]: 370 nM
- Kd [5]: 5000 nM
B2: fluorescently labeled OTULIN PIM peptide (aa 49–67) M55L (peptide, UniProt Q96BN8 49-67, looked up)
peptide: {FITC-Ahx}-AEHEEDLYRAADEIEKEKE
notes: OTULIN, residues 49-67, Met55 exchanged to Leu (as in p97); also called OTULIN M55L PIM peptide

- binding result [6]: binds
B3: unlabeled OTULIN PIM peptide (aa 49–67) (peptide, UniProt Q96BN8 49-67, looked up)
peptide: AEHEEDMYRAADEIEKEKE
notes: OTULIN, residues 49-67; Called unlabeled for NMR; also called OTULIN 49–67
